US20190055279A1, “NOVEL POLYPEPTIDES WITH IMPROVED PROTEOLYTIC STABILITY, AND METHODS OF PREPARING AND USING SAME” (TUFTS UNIVERSITY, priority 2015, published 2019)

How the values were obtained:
GLP-1 receptor [1] = target: GLP-1 receptor
GLP-1 receptor [2] = target: GLP-1 receptor; remark: listed apart in the source
GLP-1 receptor [3] = target: GLP-1 receptor; remark: listed apart in the source

N-acetyl-GLP-1 (peptide), sequence (peptide): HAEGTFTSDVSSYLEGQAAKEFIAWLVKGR

Exenatide (peptide)
EC50 (pM), agonist potency, CRE-luciferase reporter (GLP-1 receptor [1]): 1.1 pM

N-acetyl-GLP-1 (peptide)
agonist potency, CRE-luciferase reporter (GLP-1 receptor [2]): 50 fold

dipeptidyl protease 4 (enzyme)
degradation by DPP4, read as potency loss in the GLP-1R agonist assay (GLP-1 (7-36) amide): > 99.8%
degradation by DPP4, read as potency loss in the GLP-1R agonist assay (Liraglutide): > 98%
degradation by DPP4, read as potency loss on human GLP-2R (GLP-2): > 97%

para-trifluoromethyldiazirine benzyl derivative of GLP-1 (peptide)
agonist potency and efficacy (GLP-1 receptor [3]): 123 fold
